Experimental findings from the supplement of paper PMC12042874 are described below.

This data set in a line: amyloid nucleation score (Sup35N fusion, yeast selection) (log enrichment); library NNK2; higher = more nucleation; inactive = no reads after selection. Put shortly:
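Nucleation score is defined as the DiMSum log enrichment of output over input reads, with centring on the mode score of non-aggregating sequences. A minimum of 100 input reads was required for each sequence. Reads came from Illumina sequencing of plasmid inserts from psi-negative yeast expressing Sup35N fused to peptides of 20 random codons, induced with 100 μM copper sulfate for 24 hours and grown 7 days at 30°C on medium lacking adenine and uracil.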

± gives the uncertainty stated by the source.

SSRWQFYGHF showed an amyloid nucleation score of 0.518 ± 0.26.
To VVSITNINNMSSMRSEPEYK belongs 6.98 ± 0.078; to VFTYLSSDFYTGWTMVNHIM, -0.357 ± 0.21; to HNLQECSPVGPGTAFFCGSW, -0.243 ± 1.1.
NWSVILYIRACTASNIEWLS came in with an amyloid nucleation score of 1.52 ± 0.44.
Next, RYRSFICALLRGFTDLACL: -1.53 ± 1.1; VHDFTRNRKWWDNLWSDRSM: 0.399 ± 0.47.
Next, SKMPP: 0.147 ± 1.1.
In the case of SGYGAAITVNFDITEHGGM, the amyloid nucleation score came out at 5.06 ± 0.066.
To CGNPFGLSTHFNYLRRMPWE belongs 0.116 ± 0.25.
Next, NGLGLTIWL: 0.448 ± 0.22.
With LFLGYMSLCVVYVLAFGRFE, the amyloid nucleation score is 3.79 ± 0.043.
On to SRSYSNLWLGAHVLTRLRHD, for which the amyloid nucleation score was -0.337 ± 1.1.
To QSSNLMGL belongs -0.338 ± 0.39; to SYENTSV, 0.376 ± 0.66.
To FRCGRVTFNLVEYTFPPWIW belongs -0.78 ± 0.63.
Next, RPQKSSARRIVPFMMFWLGN: 0.426 ± 0.36; SDFVEKLLWFSY: 0.039 ± 0.77.
For the substance VVGSFFCQNMKHLYRELRQS, the amyloid nucleation score result is “inactive”.
To SESWSSCIMA belongs 1.33 ± 0.39.
The substance QTVTCHNNRYVFRLSTMC registered an amyloid nucleation score of 0.71 ± 0.41.
Next, GNRSTVLRSNLDVYLQDGTV: 1.51 ± 0.32; SIDEVGTANVPHGDW: 0.741 ± 0.25; NLNPRCIACLQQPTFHMKMA: -0.101 ± 0.32.
Substance CCISMDVLWRLSEQP had an amyloid nucleation score of 6.385 ± 0.05.
DNDYTWIKFLKCGRADASGT gave an amyloid nucleation score of 0.157 ± 0.5.
Next, SGFMLKWCKY: 0.874 ± 0.55.
To FLTNGESGTMGI belongs “inactive”.
Next, SGPIEIRPCIPRKLVCSYRH: 1.01 ± 0.53; GNLLKREFAIVFFSVYKQEA: -0.27 ± 0.76; FSAYLLLLYKN: -0.738 ± 0.76.
FGLTACH returned an amyloid nucleation score of -0.579 ± 0.54.
For the substance KASLGLFYTWVQLSLHISCG, the amyloid nucleation score is -0.488 ± 1.
Next, EPMKSFSHNCLTQIST: -0.557 ± 1.1; VYRYIVIYPFVKWHKTDRFC: -0.805 ± 0.33.
To AMAVLALHTVRSQLP belongs 5.988 ± 0.037; to TIWGYARC, 2.67 ± 0.11.
To GVTSRYTDSVSCGYPDSMML belongs 0.594 ± 0.45; to YHTSQLYWLLRCQSSFNSWG, 2.48 ± 0.079.
MPVHSQSRMVRRRVDKTI gave an amyloid nucleation score of -0.632 ± 0.76.
In turn, STGCSYHFRMIHATVTTYFG showed an amyloid nucleation score of 3.59 ± 0.053.
To CVDTSFCLYARELILCAR belongs -0.121 ± 0.5; to KMRDGFISLVKCEYVGGFGC, -0.856 ± 0.76.
To ADLWKLGLRAILELGPL belongs -0.165 ± 1.
Consider SGNSENSTLVKNYFSTLSLS, for which the amyloid nucleation score is -0.124 ± 0.5.
On to STPLGPFLYF, for which the amyloid nucleation score was -0.961 ± 0.76.
Next, SFGVGEFDVNYLMERRF: -0.066 ± 0.4; GEQLLED: “inactive”; FRLLWCMFSL: 0.571 ± 0.13.
To IYTTYKRTFRS belongs -0.553 ± 1.1; to VVSTESVNVI, 0.889 ± 0.27; to VVLGLDNPIHLIFLKDVNYC, -1.5 ± 1.1.
To INFSTLYDLGESFFYQCPKM belongs “inactive”.
On to HRLVLDIGDQIWSKA, for which the amyloid nucleation score was determined as 0.35 ± 0.56.
Next, RGKSKYSRLGWPGNLEHKGL: 0.388 ± 0.46; VPRFVCTHVDLIFGGNGCTF: 4.91 ± 0.075; THRTGLDK: 0.319 ± 0.36.
Next, SFCCFFRSSLVFNFLVYISG: 0.081 ± 1.1.
Next, NCARH: -0.215 ± 0.3; STNIRSLMLLFCNNIEQASV: 7.816 ± 0.038.
LDSQMWNMSGQVRTRIGRSV yielded an amyloid nucleation score of 0.459 ± 0.43.
To VICFAMSMILR belongs 3.38 ± 0.13; to CFTNIYRKGMMCYGPFTAMT, -0.214 ± 1.1.
In turn, SFAYVMCLSG had an amyloid nucleation score of -0.635 ± 0.55.
Next, FGKCYYLFVSYHYMLGLACT: -0.549 ± 1; MKCDIFGGLSDN: 0.698 ± 0.62; FCPVFST: -0.127 ± 1.
To GRVRKSHTVGSACNILYSCA belongs 1.32 ± 0.29.
In turn, SLDSNNSVFFVCMYSYRGCS returned an amyloid nucleation score of 0.359 ± 0.32.
Next, VSWAVGQGWTVRSSPRVCGE: 0.267 ± 0.42.
In turn, VAMVVRGTLYPALCPTYWVS registered an amyloid nucleation score of 2.25 ± 0.11.
Next, VISYMFRSTGVFNT: 2.73 ± 0.19; CFGMLS: -0.679 ± 1.1; KIERC: -0.077 ± 0.63.
In turn, VGGYLAICNGLSSLCLDPG showed an amyloid nucleation score of -0.59 ± 1.1.
Turning to SVIASWKSCLSLLVFQH, the amyloid nucleation score is -0.695 ± 0.64.
To WLYALWCDWSA belongs 3.97 ± 0.061.
To FLFLTTVSPRWTYRCTRFLG belongs 4.64 ± 0.055; to YESLYVKLVAEPQIRCMYYS, -0.152 ± 0.34; to TYTKFISILRSALSLMYLAS, 0.972 ± 0.67.
Next, PRVVYNFLNWGIGFYFVVDD: 7.161 ± 0.027; GSNIEGY: -0.512 ± 0.46.
On to VLPGVSFFTYRFKKF, for which the amyloid nucleation score result is “inactive”.
For YFNFIPGANRHDVSHFYGSY, the amyloid nucleation score amounted to 0.299 ± 0.21.
Substance DLRRSKSFDDTNEHWHSGFR had an amyloid nucleation score of -0.607 ± 0.64.
Next, APPLTLELQYGWPLQRPLTK: 0.275 ± 0.33; ESGVHWENTEVKGIYSYLCR: “inactive”; TYGVLVNIGGWIDTFGWKLK: 6.662 ± 0.049.
To SFIPRLYLV belongs -0.016 ± 0.53; to VLILDVVYSLDESEVSVVWY, -0.429 ± 0.42; to CMYNRLLLLGALFVTPQWVR, 0.079 ± 0.5.
Next, TGVCPR: -0.674 ± 0.5.
In the case of VDLCDFCKLVASMVEDGSRE, the amyloid nucleation score result was “inactive”.
Next, VVSRVECALAWVRNDIEALT: 0.343 ± 0.8; SYYVLRASTELYGFHVFFLR: -0.017 ± 1; LIYVATMWGNHSFYDLWDMQ: 0.112 ± 0.21.
Next, CPLNLPTLGRLATEKRAWG: -0.177 ± 0.79; IYDNMVDKFVSKGRCAVSPD: -0.066 ± 0.55.
Next, EDWNPSTMFVRFWYNSACWY: 0.204 ± 0.6; FHFKLRGWPGRGVTSMGS: -0.873 ± 0.62.
In turn, GFMFGMLTISLRSVMFVARV gave an amyloid nucleation score of -0.227 ± 0.32.
To DRWMTGMDAVYLHRRGPLFF belongs 0.13 ± 0.8; to VKALNKLGAKINLMIRFVRS, -0.306 ± 0.39.
Next, YQTWDSYVRSTCVYITCPWY: 7.133 ± 0.059; LFKEDRDRCSC: 0.99 ± 0.49; VYMPYHLSYMLEPRQNSVLS: -0.744 ± 1.1.
With VDLTIVHRGGGAGMGSNRVK, the amyloid nucleation score was determined as 0.176 ± 0.24.
To TTDLYEMLWTFWSINRNSKS belongs -0.071 ± 0.61; to KNILGGDSFWFLLYGYHLFI, “inactive”.
Next, TMKHLFRDGRSIRLLTCWVS: -0.931 ± 0.42; ANHVSKDIFVNCEVKVPHVW: 5.937 ± 0.051.
Turning to RNLCGFGCVTFRSVLL, the amyloid nucleation score is 0.279 ± 0.65.
With RVRIYMTWFFTPIIWERWDG, the amyloid nucleation score result is “inactive”.
Regarding FKCPFSNFFAMDGYY, the amyloid nucleation score is -0.801 ± 0.55.
To VYFLMLDY belongs -0.526 ± 0.49.
The substance GLYGMGIQMGPRISVSYPAA yielded an amyloid nucleation score of 0.536 ± 0.65.
Turning to GPLGHVGLFV, the amyloid nucleation score entry is “inactive”.
MTVNSLFHRLNKLRGILPDR yielded an amyloid nucleation score of -0.902 ± 0.48.
To HIYRKM belongs 0.151 ± 0.2; to RCSDRKRRFSYSNWYGHGYG, -0.448 ± 0.48.
To FNYPSLFTF belongs -1.01 ± 1.1; to NCIFDMLLVLR, “inactive”; to AQTWMAKTISKDAVGGSPLS, 0.272 ± 0.56.
To DAITCGVHFAKDLNWVYIEV belongs “inactive”; to SEKGKEYSSVDMGQNGNTNM, -0.829 ± 0.63; to VFLYAYYLNI, 0.039 ± 0.77.
Take IDQCIYDHVHNWVRRVDTRS: the amyloid nucleation score was 0.223 ± 0.18.
Next, YSFELGDFRMEKLIRDMVKC: -0.932 ± 0.42; ATLNVLDPHFYNMY: -0.691 ± 0.41; SSFSHLSNAIGMPFICNCEP: -0.385 ± 0.45.
Next, NQGIKRRLFHNWLNRGRLLF: “inactive”; RIQSSFFHCC: 7.825 ± 0.036; IFSIHVVAQTINE: 4.64 ± 0.085.
To RGHSALFTNFCGTMCGVVDG belongs 0.148 ± 1.
FASRLNWVEIHTMYGGLS gave an amyloid nucleation score of 0.209 ± 0.32.
To RRVVWSWNCLLSDMPRSHVL belongs 1.51 ± 0.13.
As to WLLMYPLI, the amyloid nucleation score was -1.04 ± 0.34.
Next, IRLYKGVTWIFLSGSYLLRD: -0.891 ± 1.1; YVCVNWTFTFLFLCLVGRSL: 0.36 ± 0.22; STSFRASSGDKYEFDVKHLV: 0.195 ± 0.76.
